Tests used:
[1] = test system: OMP-OV19 ovarian tumor cells; test: OMP-OV19 ovarian tumor xenograft model, tumor volume; type: in vivo, NOD/SCID mice
Protocol: FIGS. 1A and 1B. Inhibition of ovarian tumor growth in vivo by a RSPO-LGR pathway inhibitor in combination with a chemotherapeutic agent. OMP-OV19 ovarian tumor cells were injected subcutaneously into NOD/SCID mice. FIG. 1A. Mice were treated with control antibody (-[…]-), paclitaxel (-▪-), a combination of paclitaxel plus anti-RSPO3 antibody 131R010 (also referred to as OMP-131R10) administered the same day (-▴-), or a combination of paclitaxel plus 131R010, wherein 131R010 was administered 2 days prior to paclitaxel (-▾-). Antibodies were dosed at 25 mg/kg and administered every other week. Paclitaxel was dosed at 20 mg/kg and administered every other week. Tumor volumes were measured on the indicated days post-treatment and shown as the mean±SEM. FIG. 1B. Tumor volumes of individual animals in the two combination treatment groups on Day 61.
OncoMed xenograft models described herein were established at OncoMed Pharmaceuticals from minimally passaged, patient-derived tumor specimens. The tumor specimens were examined by a pathologist and classified as a specific tumor type. […]
Single cell suspensions of xenograft OMP-OV19 ovarian tumor cells (1×10^5 cells) were injected subcutaneously into NOD/SCID mice. […] Tumor volumes were measured on the indicated days post-treatment and are shown as the mean±SEM in FIG. 1A.

[2] = test system: xenograft models; test: Several xenograft models (summary of Examples 1-3); type: in vivo
[3] = test system: OMP-C8 colon tumor cells; test: OMP-C8 colorectal tumor xenograft model, tumor volume; type: in vivo, NOD/SCID mice; settings: for tumor growth inhibition, staggered vs same-day dosing: OMP-131R010 25 mg/kg every other week, compared with dosing on the same day
Protocol: FIGS. 3A and 3B. Inhibition of colorectal tumor growth in vivo by a RSPO-LGR pathway inhibitor in combination with chemotherapeutic agents. OMP-C8 colorectal tumor cells were injected subcutaneously into NOD/SCID mice. FIG. 3A. Mice were treated with control antibody (-▪-), nab-paclitaxel (ABRAXANE) (-Δ-), a combination of nab-paclitaxel and anti-RSPO3 antibody 131R010 administered the same day (-[…]-), or a combination of nab-paclitaxel plus anti-RSPO3 antibody 131R010, wherein 131R010 was administered 2 days prior to nab-paclitaxel (-▾-). Antibodies were dosed every other week at 25 mg/kg. Nab-paclitaxel was dosed once a week at 30 mg/kg. Tumor volumes were measured on the indicated days post-treatment. FIG. 3B. Mice were treated with control antibody (-▪-), 5-FU and irinotecan (-◯-), a combination of 5-FU, irinotecan, and anti-RSPO3 antibody 131R010 administered the same day (-▴-), or a combination of 5-FU and irinotecan plus anti-RSPO3 antibody 131R010, wherein 131R010 was administered 2 days prior to 5-FU and irinotecan (-⋄-). Antibodies were dosed every other week at 25 mg/kg. 5-FU and irinotecan were dosed at 50 mg/kg and 5 mg/kg, respectively, once a week. Tumor volumes were measured on the indicated days post-treatment.
(§1) OncoMed xenograft models described herein were established at OncoMed Pharmaceuticals from minimally passaged, patient-derived tumor specimens. The tumor specimens were examined by a pathologist and classified as a specific tumor type. OncoMed relies on these classifications unless further analyses are done on any specific tumor and a reclassification is deemed necessary.
Single cell suspensions of xenograft OMP-C8 colon tumor cells (5×10^4 cells) were injected subcutaneously into NOD/SCID mice. OMP-C8 colon tumor cells comprise an inactivating mutation in the APC gene and express low levels of RSPO3 (data not shown). Tumors were allowed to grow 23 days until they reached an average volume of approximately 100 mm^3. Tumor-bearing mice were randomized into four groups (n=9 animals per group). […] Tumor volumes were measured on the indicated days post-treatment.

[4] = test system: OMP-LU77 lung tumor cells; test: OMP-LU77 lung tumor xenograft model, tumor volume; type: in vivo, NOD/SCID mice
Protocol: FIG. 2. Inhibition of lung tumor growth in vivo by a RSPO-LGR pathway inhibitor in combination with a chemotherapeutic agent. OMP-LU77 lung tumor cells were injected subcutaneously into NOD/SCID mice. Mice were treated with control antibody (-▪-), paclitaxel (-▴-), a combination of paclitaxel and anti-RSPO3 antibody 131R010 (also referred to as OMP-131R10) administered the same day (-▾-), or a combination of paclitaxel plus anti-RSPO3 antibody 131R010, wherein 131R010 was administered 2 days prior to paclitaxel (-[…]-). Antibodies were dosed every three weeks at 25 mg/kg. Taxol was dosed every three weeks at 20 mg/kg. Tumor volumes were measured on the indicated days post-treatment.
as §1
Single cell suspensions of xenograft OMP-LU77 lung tumor cells (5×10^4 cells) were injected subcutaneously into NOD/SCID mice. Tumors were allowed to grow 34 days until they reached an average volume of approximately 125 mm^3. […] Tumor volumes were measured on the indicated days post-treatment.

B1: OMP-131R010: anti-RSPO3 antibody; heavy chain variable region SEQ ID NO:38, light chain variable region SEQ ID NO:39; plasmids ATCC PTA-120420 and PTA-120421 (antibody, V domains shown)
VH: QVQLVQSGAEVKKPGASVKVSCKASGYTFTDYSIHWVRQAPGQGLEWIGYIYPSNGDSGYNQKFKNRVTMTRDTSTSTAYMELSRLRSEDTAVYYCATYFANNFDYWGQGTTLTVSS
VL: DIQMTQSPSSLSASVGDRVTITCKASQSVDYDGDSYMNWYQQKPGKAPKLLIYAASNLESGVPSRFSGSGSGTDFTLTISPVQAEDFATYYCQQSNEDPLTFGAGTKLELKR
notes: anti-RSPO3 antibody; plasmids ATCC PTA-120420 and PTA-120421
With B1 the “tumor growth inhibition, staggered vs same-day dosing” value ([1]; OMP-131R010 25 mg/kg every other week, given two days prior to paclitaxel 20 mg/kg every other week, compared with dosing on the same day) was “greater tumor growth inhibition than dosing on the same day”, the “tumor size over the course of the treatment” value (“tumor size over the course” below) ([1]; staggered administration: OMP-131R010 25 mg/kg two days prior to paclitaxel 20 mg/kg, every other week) was “decreased tumor size” and the “inhibition of tumor growth, staggered vs co-administration” value ([2]; OMP-131R010 administered prior to a taxane, compared with co-administration) was “better at inhibiting tumor growth”. The “inhibition of tumor growth by the combination” value ([2]; combination of OMP-131R010 and a taxane) was “effective at inhibiting tumor growth”, the “tumor size over the course” value ([2]; staggered administration of OMP-131R010 and taxane) was “decreased tumor size” and the “tumor growth inhibition, staggered vs same-day dosing” value ([3]; given two days prior to fluorouracil 50 mg/kg and irinotecan 5 mg/kg weekly) was “did not result in greater tumor growth inhibition than dosing on the same day”. For the same molecule, the “tumor growth inhibition, staggered vs same-day dosing” value ([3]; given two days prior to nab-paclitaxel 30 mg/kg weekly) was “greater tumor growth inhibition than dosing on the same day”, the “efficacy in inhibiting tumor growth, vs combination with a non-mitotic-inhibitor chemotherapeutic agent” value ([3]; OMP-131R010 and nab-paclitaxel administered in a sequential manner, compared with OMP-131R010 plus fluorouracil and irinotecan) was “greater efficacy in inhibiting tumor growth” and the “tumor growth inhibition, staggered vs same-day dosing” value ([4]; OMP-131R010 25 mg/kg given two days prior to paclitaxel 20 mg/kg, both once every three weeks, compared with dosing on the same day) was “greater tumor growth inhibition than dosing on the same day”. The “tumor size over the course” value ([4]; staggered administration: OMP-131R010 25 mg/kg two days prior to paclitaxel 20 mg/kg, once every three weeks) was “decreased tumor size”.

From patent publication US20170266276A1, “Combination Therapy For Treatment of Cancer” (OncoMed Pharmaceuticals, Inc., priority 2014, published 2017)
